Experiment [1] concerns the target T1, IL-8 (human, UniProt P10145). The experiment in a line: SPR, 25C, bivalent. A general note: SPR reads the build-up and loss of mass on a sensor chip optically.
For experiment [2], the target named is T1, IL-8. The experiment can be described thus: SPR, 37C, bivalent.
The target in another experiment is GRO-beta (human, UniProt P19875). The experiment in a line: ELISA. For orientation: An ELISA detects its analyte on a solid surface through an enzyme-linked reagent.
GRO-beta, sequence (P19875 35-107): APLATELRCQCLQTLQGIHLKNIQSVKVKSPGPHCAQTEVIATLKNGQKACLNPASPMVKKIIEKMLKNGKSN
The target in the next experiment is IP-10 (human, UniProt P02778). The experiment in a line: ELISA.
IP-10, sequence (P02778 22-98): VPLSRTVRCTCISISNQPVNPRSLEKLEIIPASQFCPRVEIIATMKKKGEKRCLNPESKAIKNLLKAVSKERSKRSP
For a further experiment, the target named is GRO-alpha (human, UniProt P09341). The experiment can be described thus: ELISA.
GRO-alpha, sequence (P09341 35-107): as the sequence (P19875 35-107) above, with P2S, L3V, L20P, K27N, Q48R, M58I, K68N, N69S, G70D counted along it
The target of experiment [3] is T1, IL-8. The experiment in a line: SPR, 25C.
Experiment [4] deals with T1, IL-8. The experiment in a line: SPR, 37C.

T1 sequence (P10145 28-99): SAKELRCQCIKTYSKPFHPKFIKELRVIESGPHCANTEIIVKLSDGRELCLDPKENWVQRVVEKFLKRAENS

B1: 10F8 IgG1,kappa (antibody, V domains shown)
VH: QVQLVESGGGVVQPGRSLRLSCTASGFTFSHYGMYWVRQAPGKGLEWVAVIWYDGSYEYNADSVKGRFTISRDNSKNTLYLQMNSLRAEDTAVYYCARDRVGLFDYWGQGTLVTVSS
VL: EIVLTQSPGTLSLSPGERATLSCRASQSISSSYLAWYQQKPGQAPRLLIYGPSSRATGIPDRFSGSGSGTDFTLTISRLEPEDFAVYYCQQYAGSLTFGPGTKVDIK
Take B1: the Kd with IL-8 [1] worked out at 0.01 nM; with IL-8 [2], 0.02 nM. Further, the binding result with GRO-beta, with IP-10 and with GRO-alpha was “no binding” in each case.

B2: 10F8 Fab (antibody, V domains shown)
VH: B1 VH
VL: B1 VL
B2: the Kd in the experiment with IL-8 [3] came out at 0.194 nM; with IL-8 [4], 0.372 nM.

The record behind these values is patent US20190248883 (published 2019).
